Laboratory results published in patent US20230357364A1 (INTERNATIONAL AIDS VACCINE INITIATIVE, published 2023).
Like-named read-outs stand apart in the source and are kept apart here.

Legend:
SARS-CoV-2 RBD (RBD-2) [1] = target: SARS-CoV-2 RBD (RBD-2) (SARS-CoV-2); test: SPR, Fc-captured IgG
SARS-CoV-2 RBD (RBD-2) [2] = target: SARS-CoV-2 RBD (RBD-2) (SARS-CoV-2); test: flow, HeLa-ACE2, mAb:RBD=2:1
SARS-CoV-2 RBD (RBD-2) [3] = target: SARS-CoV-2 RBD (RBD-2) (SARS-CoV-2); test: flow, HeLa-ACE2, mAb:RBD=4:1
[4] = target: T1, SARS-CoV-1 spike on pseudovirus (SARS-CoV-1, UniProt P59594 14-1255); test: cell-based or functional assay
[5] = target: T2, SARS-CoV-2 spike on pseudovirus or live virus (USA-WA1/2020, WT) (SARS-CoV-2, UniProt P0DTC2 14-1273); test: cell-based or functional assay
[6] = target: T1, SARS-CoV-1 spike on pseudovirus; test: cell-based or functional assay; remark: listed apart in the source
[7] = target: T2, SARS-CoV-2 spike on pseudovirus or live …; test: cell-based or functional assay; remark: listed apart in the source
SARS-CoV-1 RBD (RBD-1) = SARS-CoV-1 RBD (RBD-1) (SARS-CoV-1); test: ELISA
SARS-CoV-2 RBD (RBD-2) [8] = target: SARS-CoV-2 RBD (RBD-2) (SARS-CoV-2); test: ELISA

B1: L12.bP13A12 (antibody, V domains shown)
VH: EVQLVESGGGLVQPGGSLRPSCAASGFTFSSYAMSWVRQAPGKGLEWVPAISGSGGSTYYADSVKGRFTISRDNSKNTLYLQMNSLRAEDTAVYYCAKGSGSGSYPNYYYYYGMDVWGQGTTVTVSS
VL: SYELTQSPSVSVAPGQTARITCGGNNIGSKSVHWYQRKPGQAPVLVVYDDSDRPSGIPERFSGSNSGNTATLTISRVEAGDEADYYCQVWDNNSDHLVFGGGTKLTVL
SARS-CoV-2 RBD (RBD-2) [1]
  Kd: 26 nM
  koff: 0.0115 s⁻¹
  kon: 443000 M⁻¹ s⁻¹
SARS-CoV-2 RBD (RBD-2) [2]
  % inhibition of RBD binding to hACE2: -44.2%
  MFI (RBD binding to cell surface): 16100
SARS-CoV-2 RBD (RBD-2) [3]
  % inhibition of RBD binding to hACE2: -46.7%
  MFI (RBD binding to cell surface): 16400
[4]
  PSV neutralization IC50: > 50 µg/mL
[5]
  PSV neutralization IC50: 0.051 µg/mL
[6]
  PSV neutralization IC50: > 50 µg/mL
[7]
  Maximum Plateau of Neutralization: 50%
  PSV neutralization IC50: > 50 µg/mL
SARS-CoV-1 RBD (RBD-1)
  EC50: > 50 µg/mL
SARS-CoV-2 RBD (RBD-2) [8]
  EC50: 0.019 µg/mL

B2: L12.cP07E10 (antibody, V domains shown)
VH: EVQLVESGGGLIQPGGSLRLSCAASGFTVSSNYMSWVRQAPGKGLEWVSVIYSGGSTYYADSVKGRFTISRDNSKNTLYLQMNSLRAEDTAVYYCARDPYGYSSIWDGQGGHWGQGTLVTVSS
VL: DVVMTQSPSSLSASVGDRVTITCQASQDISNYLNWYQQKPGKAPKLLIYDASNFATGVPSRFSGTGSGTDFTFTISSLQPEDIATYYCQQYDNLPITFGQGTRLEIK
notes: human IgG1
SARS-CoV-2 RBD (RBD-2) [1]
  Kd: 2.6 nM
  koff: 0.000364 s⁻¹
  kon: 140000 M⁻¹ s⁻¹
SARS-CoV-2 RBD (RBD-2) [2]
  % inhibition of RBD binding to hACE2: 98.6%
  MFI (RBD binding to cell surface): 237
SARS-CoV-2 RBD (RBD-2) [3]
  % inhibition of RBD binding to hACE2: 99.1%
  MFI (RBD binding to cell surface): 178
[4]
  PSV neutralization IC50: > 50 µg/mL
[5]
  PSV neutralization IC50: 0.029 µg/mL
[6]
  PSV neutralization IC50: > 50 µg/mL
[7]
  Maximum Plateau of Neutralization: 100%
  PSV neutralization IC50: 0.1 µg/mL
SARS-CoV-1 RBD (RBD-1)
  EC50: > 50 µg/mL
SARS-CoV-2 RBD (RBD-2) [8]
  EC50: 0.058 µg/mL

B3: L12.bP12H09 (antibody, V domains shown)
VH: QVQLVQSGAEVKKPGASVKVSCKASGYIFSGYYTHWVRQAPGQGLEWMGWISPDSGGTNYAQKFQGRVTMTRDTSITTAYVELSGLRSDDTAVYYCARGPRYSGTYFDYWGQGTLVTVSS
VL: QSALTQPASVSGSPGQSITISCTGTSSDVGGYNHVSWYQQHPGKAPKLMIYDVSNRPSGVSNRFSGSKSGNTASLTISGLQAEDEADYYCSSYTSSSAQLFGGGTKLTVL
notes: human IgG1
SARS-CoV-2 RBD (RBD-2) [1]
  Kd: 155 nM
  koff: 0.12 s⁻¹
  kon: 773000 M⁻¹ s⁻¹
SARS-CoV-2 RBD (RBD-2) [2]
  % inhibition of RBD binding to hACE2: 41.6%
  MFI (RBD binding to cell surface): 6560
SARS-CoV-2 RBD (RBD-2) [3]
  % inhibition of RBD binding to hACE2: 54.7%
  MFI (RBD binding to cell surface): 5100
[4]
  PSV neutralization IC50: > 50 µg/mL
[5]
  PSV neutralization IC50: 0.062 µg/mL
[6]
  PSV neutralization IC50: > 50 µg/mL
[7]
  Maximum Plateau of Neutralization: 100%
  PSV neutralization IC50: 0.106 µg/mL
SARS-CoV-1 RBD (RBD-1)
  EC50: > 50 µg/mL
SARS-CoV-2 RBD (RBD-2) [8]
  EC50: 0.483 µg/mL

B4: L12.cP09C07 (antibody, V domains shown)
VH: QVQLVQSGAEVKKPGASVKVSCKASGYIYSGYFMHWVRQAPGQGLEWMGWISPDSGGANYAQTFQGRVTMTRDTSTTTAHMELSRLRSDDTAVYYCARGPRYSGTHFDYWGQGTLVTVSS
VL: QSALTQPASVSGSPGQSLTISCTGTSSDVGGYNYVSWYQQHPDKAPKLMIYDVNNRPSGVSNRFSGSKSGSTASLTISGLQAEDEADYYCSSYAGSSTQVFGGGTKLIVL
notes: human IgG1
SARS-CoV-2 RBD (RBD-2) [1]
  Kd: 87.9 nM
  koff: 0.0691 s⁻¹
  kon: 786000 M⁻¹ s⁻¹
SARS-CoV-2 RBD (RBD-2) [2]
  % inhibition of RBD binding to hACE2: 54.5%
  MFI (RBD binding to cell surface): 5130
SARS-CoV-2 RBD (RBD-2) [3]
  % inhibition of RBD binding to hACE2: 64.3%
  MFI (RBD binding to cell surface): 4040
[4]
  PSV neutralization IC50: > 50 µg/mL
[5]
  PSV neutralization IC50: 0.085 µg/mL
[6]
  PSV neutralization IC50: > 50 µg/mL
[7]
  Maximum Plateau of Neutralization: 95%
SARS-CoV-1 RBD (RBD-1)
  EC50: > 50 µg/mL
SARS-CoV-2 RBD (RBD-2) [8]
  EC50: 0.16 µg/mL
